Substrate in the data set: OC[C@H]1O[C@@H](n2cnc3c(O)ncnc32)[C@H](O)[C@@H]1O
As to the kind of experiment: purified protein. The following applies: […] hPNP.

The term Km denotes the substrate concentration at which the rate is half of its maximum.

B1: human purine nucleoside phosphorylase (hPNP) (Homo sapiens) (protein)
chain: MENGYTYEDYKNTAEWLLSHTKHRPQVAIICGSGLGGLTDKLTQAQIFDYGEIPNFPRSTVPGHAGRLVFGFLNGRACVMMQGRFHMYEGYPLWKVTFPVRVFHLLGVDTLVVTNAAGGLNPKFEVGDIMLIRDHINLPGFSGQNPLRGPNDERFGDRFPAMSDAYDRTMRQRALSTWKQMGEQRELQEGTYVMVAGPSFETVAECRVLQKLGADAVGMSTVPEVIVARHCGLRVFGFSLITNKVIMDYESLEKANHEEVLAAGKQAAQKLEQFVSILMASIPLPDKAS
Take B1: the Km stood at 68.92 ± 4.08 µM.

Values taken from doi:10.1101/2024.05.16.594462v2.
